According to paper PMC3829167, “Directed Evolution of an Angiopoietin-2 Ligand Trap by Somatic Hypermutation and Cell Surface Display*” (The Journal of Biological Chemistry, 2013):
Changes are numbered by the printed parent chain. Names and notes keep the numbering of the source.

B1: soluble Tie2 ectodomain (1-442)-Fc fusion protein with F161I substitution (Fc fusion, human, UniProt Q02763 23-442, looked up)
chain: AMDLILINSLPLVSDAETSLTCIASGWRPHEPITIGRDFEALMNQHQDPLEVTQDVTREWAKKVVWKREKASKINGAYFCEGRVRGEAIRIRTMKMRQQASFLPATLTMTVDKGDNVNISFKKVLIKEEDAVIYKNGSIIHSVPRHEVPDILEVHLPHAQPQDAGVYSARYIGGNLFTSAFTRLIVRRCEAQKWGPECNHLCTACMNNGVCHEDTGECICPPGFMGRTCEKACELHTFGRTCKERCSGQEGCKSYVFCLPDPYGCSCATGWKGLQCNEACHPGFYGPDCKLRCSCNNGEMCDRFQGCLCSPGWQGLQCEREGIQRMTPKIVDLPDHIEVNSGKFNPICKASGWPLPTNEEMTLVKPDGTVLHPKDFNHTDHFSVAIFTIHRILPPDSGVWVCSVNTVAGMVEKPFNISVK
notes: signal peptide in the construct; human Tie2 ectodomain, residues 1-442, F161I; also called F/I; F161I ectodomain; source: HEK293 cells, transfected, secreted, purified (nickel-nitrilotriacetic acid chromatography); not shown: Fc (human), C-terminal, kept
B2: soluble evolved (R3) Tie2 ectodomain (1-442)-Fc fusion protein (Fc fusion, human, UniProt Q02763 23-442, looked up)
chain: AMDLILINSLPLVSDAETSLTCIASGWRPHEPITIGRDFEALMNQHQDPLEVTQDVTREWAKKVVWKREKASKINGAYFCEGRVRGEAIRIRTMKMRQQASFLPATLTMTVDKGDNVNISFKKVLIKEEDAVIYKNGSIIHSVPEVPDILEVHLPHAQPQDAGVYSARYIGGNLFTSAFTRLIVRRCEAQKWGPECNHLCTACMNNGVCHEDTGECICPPGFMGRTCEKACELHTFGRTCKERCSGQEGCKSYVFCLPDPYGCSCATGWKGLQCNEACHPGFYGPDCKLRCSCNNGEMCDRFQGCLCSPGWQGLQCEREGIQRMTPKIVDLPDHIEVNSGKFNPICKASGWPLPTNEEMTLVKPDGTVLHPKDFNHTDHFSVAIFTIHRILPPDSGVWVCSVNTVAGMVEKPFNISVK
notes: signal peptide in the construct; human Tie2 ectodomain, residues 1-442, with F161I and the deletion of Arg-167/His-168 introduced by site-directed mutagenesis; The changes were found by directed evolution and put into m3 by site-directed mutagenesis; also called evolved ectodomain; R3 ectodomain; source: HEK293 cells, transfected, secreted, purified (nickel-nitrilotriacetic acid chromatography); …
B3: soluble Tie2 ectodomain (1-442)-Fc fusion protein with the double Arg-167/His-168 deletion (Fc fusion, human, UniProt Q02763 23-442, looked up)
chain: B2 chain with I139F
notes: signal peptide in the construct; human Tie2 ectodomain, residues 1-442, Arg-167 and His-168 deleted; also called ΔRH; ΔArg-167/His-168; source: HEK293 cells, transfected, secreted, purified (nickel-nitrilotriacetic acid chromatography); not shown: Fc (human), C-terminal, kept

Assays:
[1] = target: T1, human angiopoietin 2 (human, UniProt O15123 19-496); experiment: ELISA; 5 μg/ml Ang1 or Ang2 immobilised in 96-well plates; blocked with TBS, 1 mg/ml BSA, 0.1% Triton-X 100; ectodomain-Fc fusion protein bound for 1 h at different concentrations, detected with anti-Tie2 ectodomain antibodies; saturation binding curves fitted by nonlinear regression; conditions: both partners purified
T1 construct: human angiopoietin 2 (Ang2), recombinant protein from R&D Systems; also called Ang2; source: bought: R&D Systems
T1 sequence (looked up): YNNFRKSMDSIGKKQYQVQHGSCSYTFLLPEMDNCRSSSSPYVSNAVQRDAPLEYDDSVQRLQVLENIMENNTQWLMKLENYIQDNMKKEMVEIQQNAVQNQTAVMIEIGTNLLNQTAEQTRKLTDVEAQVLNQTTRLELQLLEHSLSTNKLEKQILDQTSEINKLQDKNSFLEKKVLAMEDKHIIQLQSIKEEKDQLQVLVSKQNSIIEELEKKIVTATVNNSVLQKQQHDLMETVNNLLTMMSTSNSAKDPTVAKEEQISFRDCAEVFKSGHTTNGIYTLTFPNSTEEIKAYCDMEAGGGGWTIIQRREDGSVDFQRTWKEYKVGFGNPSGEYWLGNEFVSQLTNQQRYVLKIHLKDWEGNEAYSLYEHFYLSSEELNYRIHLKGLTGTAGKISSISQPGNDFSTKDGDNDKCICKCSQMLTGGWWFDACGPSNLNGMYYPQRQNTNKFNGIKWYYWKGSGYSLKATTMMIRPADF

[2] = target: T2, human angiopoietin 1 (human, UniProt Q15389 16-498); experiment: as above; conditions: both partners purified
T2 construct: human angiopoietin 1 (Ang1), recombinant protein from R&D Systems; in the other experiments it was detected with anti-Ang1 or immobilised; also called Ang1; source: bought: R&D Systems
T2 sequence (looked up): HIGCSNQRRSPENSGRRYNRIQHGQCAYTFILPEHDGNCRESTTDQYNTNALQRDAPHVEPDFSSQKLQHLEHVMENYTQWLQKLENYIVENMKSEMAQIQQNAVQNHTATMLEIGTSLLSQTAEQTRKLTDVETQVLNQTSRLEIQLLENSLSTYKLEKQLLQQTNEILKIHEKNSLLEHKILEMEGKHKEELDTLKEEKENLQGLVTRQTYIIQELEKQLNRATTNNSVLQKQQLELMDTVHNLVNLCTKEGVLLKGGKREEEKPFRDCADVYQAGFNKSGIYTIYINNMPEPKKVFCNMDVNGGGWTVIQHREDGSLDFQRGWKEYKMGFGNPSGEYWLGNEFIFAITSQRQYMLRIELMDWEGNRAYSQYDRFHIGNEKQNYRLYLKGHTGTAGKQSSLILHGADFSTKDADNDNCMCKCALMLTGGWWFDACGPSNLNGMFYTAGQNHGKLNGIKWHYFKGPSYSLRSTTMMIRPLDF

Binder | Max binding (% of WT) [1] | Max binding (% of WT) [2]
B1 | 90.5 % of WT | 97.8 % of WT
B2 | 59.4 % of WT | 3 % of WT
B3 | 0.58 % of WT | 0.29 % of WT
